Tested on: T1, MsmR1 (Paenibacillus polymyxa SC2-M1 (SC2 derivative)), ORF:0fff1571
T1 sequence: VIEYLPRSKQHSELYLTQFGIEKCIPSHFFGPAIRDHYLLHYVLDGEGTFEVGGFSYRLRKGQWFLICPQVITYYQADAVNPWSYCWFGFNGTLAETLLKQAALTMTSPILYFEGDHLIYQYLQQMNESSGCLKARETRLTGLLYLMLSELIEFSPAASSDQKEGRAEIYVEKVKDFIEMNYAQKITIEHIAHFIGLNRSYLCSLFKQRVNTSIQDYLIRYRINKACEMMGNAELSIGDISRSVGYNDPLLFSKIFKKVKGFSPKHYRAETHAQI
Assay: EMSA
Conditions: Chemiluminescent EMSA kit (Beyotime); labeled probe about 0.4 uM, competitor about 4 uM, protein gradient; buffer, salt, pH and temperature not stated

Row | Sequence | binding
1 | ATATGATTTCTGTAGAACCTACTGCTATATTGTTGGATCTTATCAAGCTTTACACCATATGAACTTAGTTGACGCCTGCTACATAAAGATTCTTCTAAGTGCCTTTTTGGTGTGGATCTCTGATGATTATTATCTAAGAGAGGGGTTATTTTTCCCAA (double strand) [msmR1 promoter] | binds
2 | CCGATTCATCTCATTTACGCATGGATATGTTGAGAAAAAGGAAATGCTCATAGCTAGAAAACTTTATACAATGAAAGAGAAATAAGCACTGTGAAATTCGACTTTTGATCATGGATTTCATATAATGTGAATTGCTTAAATTAGAGATTTAAC (double strand) [sucA upstream fragment] | binds
3 | GGACGAATCGCACATGAGGCTTTCCCCAACAAACGTGACAGTTTTAGAGCCTTGGGCAATTATGTAAAGAGAGGGCATGTTGAGGGTATGCGTCGGTTTCGACTCCGCGGATGCGCGCCTGAAACAAAGCTCTGGAATCGCTGTTTGGTGTAAACCATCCTTAGGCGTATGCCGTGCTATTTGCTTAGCTAACTCCGTAATGAGTTGGTTCAAACTTGTTCACCAATCCTTTTTCATTTAATCTGATATGAATATTGTAATTCAAACCGGACAGGAATAGGCAAGGAACGCGTATGAAT (double strand) [sdr3 upstream fragment] | binds
4 | CAGAGGAAATGCATGTCCGTATTATCGGAGACAACACGATTTCCCGCAAAAATCATGCGGTCATTGTGTATGATCCGAAGAAACGCAACTTTTACTTGCTGCCAGGCGATTCGTCAGGCTTGGCGTATCACAATAACGAGGCGGTATATTCACCAGTGGAGCTGGCTGCTTATGACGTGATTCAGCTCGGGCGCAGCAAATTTATCTTTATTCCGCTGTGCGGCGCTCATTTCGAGTGGGA (double strand) [pppL upstream fragment] | binds
5 | CAGCAACGCACCTCAAGAGATTGCAGGTGTGAAGGTAGACAAAGTACTGGACTACTCGCAAGGCTTGGACGGACTTCCGCAGGAAAACGTACTCAAGTTTTTATTGGAGGACGGTTCTTGGTTCTGCCTGCGTCCTTCGGGCACAGAGCCTAAAATCAAAGTATACTTTGCAGTACGTGGTTCCTC (double strand) [PPSC2_23180 upstream fragment] | binds
6 | TGATCTGGTAACACCGAACTTATTCGAGGCTTCACAGCTGGCGAAGAAAGGACCGATCACGACACTGGAGCAGATGCAGGAAGCGGCTGCTATTATCCACGAGCGTGGTGCTAAGCATGTGCTGATCAAGGACCGTGGCAAAATTCGCGCAGGTAAAGCGATGGATCTGCTGTATGACGGAATCACTTTTGACTGGTTTGAAGCGGATGTTGTACAAACCAACTTTACCCACGGTGCAGGCTGTACCACTTCGGCTGCGGTAACGGCTGGTTTGGCACAAGGGCTGACTGTAC (double strand) [pepF upstream fragment] | binds
7 | CGGAACAAATGGATCTTCGCAAAGAATACCTTCAAATCTTTCGAGGCTCTATCAAAAGCATACTTTTGAATGCTACGATTTATGATCCGAATGGAGATGATGTTACTCCTGAAAAATTAAGAAAAGAACAGGCTCAAATCGTTAAGCCATGAATTTAATTTTGTCT (double strand) [ydfp upstream fragment] | binds
8 | ACCATTTCCCGGGCAATCGGCTGCCGGGTGCGAATGGAATCGCCCAAGTCCCCTCGTGCCAGTTCACTTAGATAGGTCCCATATTGCTGTAGCCACGGCTTATCCAGCCCTAATTGCTCACGCAGCGCCTGTTTGGACTGTTCCGTGGCCTTGTCCCCGAGTATCGTTTCTGCCGGATCACCGGGAATAGCATGAATAATCGAAAACACGATAAGCGTCATCCCCA (double strand) [oppC3 upstream fragment] | binds
